These results are taken from paper PMC4546533.

The target of assay [1] is MmpL3-D1 (MmpL3 residues 32 – 187) (Mycobacterium tuberculosis) (UniProt P9WJV5). Put plainly: BLI. For orientation: BLI is a label-free optical method that tracks binding on a fibre tip over time.
Assay [2] addresses MmpL11-D1 (MmpL11 residues 41 – 187) (Mycobacterium tuberculosis) (UniProt P9WJT9). As to the kind of experiment: BLI.
UniProt P9WJT9, sequence (P9WJT9 41-187): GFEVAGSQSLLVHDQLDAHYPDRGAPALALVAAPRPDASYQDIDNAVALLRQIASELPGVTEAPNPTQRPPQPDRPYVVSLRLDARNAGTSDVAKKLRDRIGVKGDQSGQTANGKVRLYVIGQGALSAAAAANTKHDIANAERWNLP

UniProt P9WJV5, sequence (P9WJV5 32-187): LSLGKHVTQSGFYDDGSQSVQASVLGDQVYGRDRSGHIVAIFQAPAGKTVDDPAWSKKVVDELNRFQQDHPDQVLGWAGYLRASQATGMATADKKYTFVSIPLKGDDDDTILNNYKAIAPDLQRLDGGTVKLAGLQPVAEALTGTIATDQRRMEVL

“MmpL3-D2 (MmpL3 residues 419 – 560) (from UniProt P9WJV5 419-560) (domain or fragment)”: in assay [1], the Kd – broadly, the free concentration of one partner at which half of the binding sites on the other are occupied at equilibrium, for simple one-to-one binding – was found to be 4.1 µM. For “MmpL11-D2 (MmpL11 residues 390 – 529) (from UniProt P9WJT9 390-529) (domain or fragment)”, the Kd in assay [2] is 4.5 µM.
